Experimental data from paper PMC13393415, “The bacterial SOS response promotes the expression of the transposase encoded by ISCR mobile genetic elements”.
Residue numbers refer to the chain shown, from its start.

Columns and labels:
[1] = molecular target: T1, His6-LexA (Escherichia coli) (UniProt P0A7C2); assay: EMSA; conditions: 10 mM HEPES pH 8, 10 mM Tris-HCl pH 8, 50 mM KCl, 1 mM EDTA; on ice 20 min; 40 ng DNA, 0-600 ng LexA in 10 uL; 6% native Tris-glycine PAGE, SYBR Green
T1 sequence: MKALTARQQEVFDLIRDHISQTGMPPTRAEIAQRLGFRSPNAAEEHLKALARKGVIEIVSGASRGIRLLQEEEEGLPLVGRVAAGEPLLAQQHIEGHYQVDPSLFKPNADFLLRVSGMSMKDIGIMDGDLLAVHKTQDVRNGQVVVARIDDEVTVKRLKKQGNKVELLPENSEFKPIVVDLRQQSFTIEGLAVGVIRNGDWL

His6-LexA = His6-LexA (Escherichia coli, UniProt P0A7C2 1-202); assay: EMSA; 10 mM HEPES pH 8, 10 mM Tris-HCl pH 8, 50 mM KCl, 1 mM EDTA; on ice 20 min; 40 ng DNA, 0-600 ng LexA in 10 uL; 6% native Tris-glycine PAGE, SYBR Green; conditions: protein: recombinant; tags: N-terminal His6; blunt

For “CAACCGGTAGTGGCTGATAACAACTCGTGAGGGCTATTGCGGGTTAAGCATTTAGCGATGTCTAGGGCCAGACTGGACGTCTGAACGCAAGCCGCTGATACTGTACATAACCACAGTATCAGCGGAGGATACCCATGTCGCTGGCAAGGAACGCCACGGCGAGTCAATCGCCCACTCAAACAAACGGTTACGAACGCCACCAACCCGACCAGACGCTG (double strand) [Prcr1]”, the binding [1] was “binds”.

With “CCGGAATTCGGGAGTGACGGGCACTGGCTGGCAATGTCTAGCAACGGCAGGCATTTCGGCTGAGGGTAAAAGAACTTTCCGCTAAGCGATAGACTGTATGTAAACACAGTATTGCAAGGACGCGGAACATGCCTCATGTGGCGGCCAGGACGGCCAGCCGGGATCGGGATACTGGTCGTTACCAGAGCCACCGACCCGAGCAAACCCTT (double strand) [Prcr2]” the binding [1] was “binds”.

B1: Prcr8 (dsDNA)
DNA 1: GGCGACGGTTCGGGCCTTGTGCTTTGCGTACCCAAACAATCGCCGCAGAATACTGTGCATTTGTACAGCATTCATGTCAGCCACTTCCAAGCCCAAGCTCTACAACCCACGCCACCCCGA
DNA 2: TCGGGGTGGCGTGGGTTGTAGAGCTTGGGCTTGGAAGTGGCTGACATGAATGCTGTACAAATGCACAGTATTCTGCGGCGATTGTTTGGGTACGCAAAGCACAAGGCCCGAACCGTCGCC
B1: binds (His6-LexA).

B2: Prcr8 L (dsDNA)
DNA 1: B1 DNA 1 with C66A, A67C, G68T
DNA 2: B1 DNA 2 with C53A, T54G, G55T
modifications: LexA box mutated (terminal ACAG to AACT)
B2: no binding (His6-LexA).
